# Experimental data: the supplement of paper PMC10126150
# ± gives the standard deviation of the averaged measurements.
# Test system: ATP
# Test: switch fluorescence ratio, 500 uM ATP over buffer (Cy3 cluster intensity, sum of 5 cycles each) (fold (ratio)); higher = stronger signal-on switching upon ATP binding; sequences stand for … in TCGTCGGCAGCGTCAGATGTGTATAAGAGACAGTTTTTTTTTTTTTTTTTTTTTTTTT…TC
# Conditions: aptamer strand: ATP DNA aptamer (quencher-CACCTGGGGGAGTATTGCGGAGGAAGG + anchor), 100 nM annealed; ATP concentration: 500 uM
# Outline: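 Five buffer/ATP imaging cycles were run on Cy3-labelled switching-strand clusters on a modified Illumina MiSeq flow-cell, with NaOH stripping and re-annealing between cycles. In each cycle, clusters annealed to 100 nM quencher-labelled ATP aptamer were imaged in selection buffer, then after 15 min with 500 uM ATP at 22 °C. Per cluster, the fluorescence ratio is summed target-cycle over summed buffer-cycle Cy3 intensity, averaged per switch-domain sequence. Only clusters within 100-1000 RFU were kept.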
# 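Further: ATP exposure 15 min at 22 °C before imaging.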
row,Sequence,switch fluorescence ratio
1,TATGTTATTC,1.01 ± 0.045
2,TATGTTCACG,0.9924 ± 0.0042
3,TATGTTGCGT,0.9975 ± 0.0078
4,TATGTTGTCC,0.977 ± 0.018
5,TATGTTGTGA,0.9902 ± 0.0039
6,TATGTTTAAA,0.9922 ± 0.0042
7,TATGTTTCAG,0.972 ± 0.038
8,TATTAAATTG,0.9975 ± 0.0028
9,TATTAACATC,1.04 ± 0.014
10,TATTAAGATA,0.987 ± 0.043
11,TATTAATATT,1.003 ± 0.0059
12,TATTAATCGA,1 ± 0.016
13,TATTAATTCT,0.972 ± 0.036
14,TATTAATTGC,0.995 ± 0.025
15,TATTAATTTT,1.02 ± 0.015
16,TATTACAGGT,1.03 ± 0.0089
17,TATTACGGGG,1.005 ± 0.006
18,TATTAGATTT,0.996 ± 0.014
19,TATTAGGGTT,1.03 ± 0.045
20,TATTAGTACT,0.989 ± 0.011
21,TATTAGTGGG,0.979 ± 0.025
22,TATTAGTTGG,0.971 ± 0.023

row,Sequence,switch fluorescence ratio
1,TATTCGAAAT,1.02 ± 0.028
2,TATTCGCCTT,1.11 ± 0.12
3,TATTCGGTCG,0.993 ± 0.025
4,TATTCGTATT,0.981 ± 0.029
5,TATTCTAGTA,1.01 ± 0.022
6,TATTCTAGTG,1.013 ± 0.01
7,TATTCTCTTT,1.04 ± 0.081
8,TATTGAAAAA,1.06 ± 0.048
9,TATTGAACGA,1 ± 0.011
10,TATTGAAGAG,1.008 ± 0.0076
11,TATTGACCGT,1.04 ± 0.029
12,TATTGACGGA,1.006 ± 0.0096
13,TATTGCCTGT,0.974 ± 0.019
14,TATTGCTTT,0.977 ± 0.012
15,TATTGGCTTT,0.989 ± 0.014
16,TATTGGGAGG,0.968 ± 0.023
17,TATTGGTGCA,0.967 ± 0.017
18,TATTGTATGC,0.996 ± 0.037
19,TATTGTCTAC,0.9901 ± 0.0019
20,TATTGTGAAA,0.988 ± 0.012
21,TATTGTGAAT,1 ± 0.014
22,TATTGTGTCG,1.02 ± 0.016

row,Sequence,switch fluorescence ratio
1,TATTGTTTTG,0.986 ± 0.033
2,TATTTAAAAC,1.03 ± 0.021
3,TATTTAATTT,0.997 ± 0.026
4,TATTTAGACC,1.04 ± 0.012
5,TATTTAGAGG,1.01 ± 0.079
6,TATTTAGGGA,0.987 ± 0.022
7,TATTTAGGGT,1.01 ± 0.021
8,TATTTATAGC,1.02 ± 0.013
9,TATTTATCTG,1.02 ± 0.019
10,TATTTATGGT,0.976 ± 0.039
11,TATTTATGTC,1.02 ± 0.025
12,TATTTATTGT,1.01 ± 0.008
13,TATTTCATTT,1.06 ± 0.072
14,TATTTCCACT,1.023 ± 0.01
15,TATTTCGCGG,0.993 ± 0.045
16,TATTTCGGTG,0.982 ± 0.027
17,TATTTCTGTT,0.984 ± 0.025
18,TATTTGAAAT,1.01 ± 0.039
19,TATTTGAGGG,1 ± 0.041
20,TATTTGCACG,1.07 ± 0.062
21,TATTTGCATC,1.01 ± 0.018
22,TATTTGGATC,0.991 ± 0.035

row,Sequence,switch fluorescence ratio
1,TATTTGGATG,1.03 ± 0.069
2,TATTTGGCTT,1 ± 0.025
3,TATTTGGGGC,1.01 ± 0.058
4,TATTTGGTAT,0.9862 ± 0.0075
5,TATTTGTCCA,0.981 ± 0.047
6,TATTTGTTTT,0.998 ± 0.039
7,TATTTTAATC,1.04 ± 0.059
8,TATTTTACGC,1.01 ± 0.024
9,TATTTTATAT,0.943 ± 0.021
10,TATTTTATGT,1.021 ± 0.0042
11,TATTTTGAAC,1.0289 ± 4.6e-05
12,TATTTTGAGA,0.997 ± 0.012
13,TATTTTGTAG,0.995 ± 0.019
14,TATTTTTACA,1.012 ± 0.0086
15,TATTTTTGCG,0.97 ± 0.05
16,TATTTTTTGT,1.01 ± 0.021
17,TATTTTTTTG,1.01 ± 0.018
18,TCAAAAGGTG,1.33 ± 0.22
19,TCAAAATATA,0.987 ± 0.061
